Where “and” joins values, the source holds several entries; their conditions need not be identical. Equal values may be shown once.
Biological target: Factor X (FX), P00742
Sequence (P00742 whole entry, looked up): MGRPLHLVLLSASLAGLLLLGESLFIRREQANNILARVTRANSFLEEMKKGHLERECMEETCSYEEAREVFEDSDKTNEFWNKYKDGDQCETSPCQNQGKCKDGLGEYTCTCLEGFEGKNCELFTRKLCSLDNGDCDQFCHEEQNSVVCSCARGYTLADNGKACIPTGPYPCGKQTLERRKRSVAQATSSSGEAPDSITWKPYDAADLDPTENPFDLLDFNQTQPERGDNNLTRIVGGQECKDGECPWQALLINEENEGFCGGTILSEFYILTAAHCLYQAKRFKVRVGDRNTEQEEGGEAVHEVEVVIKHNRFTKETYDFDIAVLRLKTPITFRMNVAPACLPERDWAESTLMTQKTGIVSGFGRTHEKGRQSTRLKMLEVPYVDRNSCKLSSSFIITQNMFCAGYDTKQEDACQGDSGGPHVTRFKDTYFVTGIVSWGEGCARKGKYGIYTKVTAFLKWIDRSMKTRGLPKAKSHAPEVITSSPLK

Protein | KM | kcat | % of WT kcat/KM (against Catalyst Biosciences WT FIXa), FX activation in the Xase complex | KM (nM) for activation of FX by FIXa in the Xase complex (FVIIIa, PC/PS vesicles, Ca2+), fluorogenic Spectrafluor FXa assay | kcat/KM for FX activation by FIXa in the Xase complex (FVIIIa, PC/PS vesicles, Ca2+), indirect fluorogenic Spectrafluor FXa assay | % of WT kcat/KM | KM for FX activation by FIXa in the Xase complex (FVIIIa/PC-PS/Ca2+), fluorogenic Spectrafluor FXa assay
FIXa-Y155F/K247N/N249S/R318Y/R338E/R403E (protein) chain 1: not shown chain 2: not shown | 0.0673 µM | 5.7 s⁻¹ | – | – | – | – | –
FIXa-D104N/K106S/N260S/R318Y/R338E/R403E/E410N (protein) chain 1: not shown chain 2: not shown | 0.0611 µM | – | 196% | 61.1 nM | 8.8e+07 M⁻¹ s⁻¹ | – | –
FIXa-R318Y/R338E/Y345A/N346D/R403E/E410N (protein) chain 1: not shown chain 2: not shown | 0.0565 µM | 1.2 s⁻¹ | – | – | – | – | –
FIXa-D203N/F205T/R318Y/E410N (protein) chain 1: not shown chain 2: not shown | 0.0457 µM | 1.6 s⁻¹ | – | – | – | 88% and 85% | 0.0457 µM
FIXa-K247N/N249S/R318Y/R338E/R403E (protein) chain 1: not shown chain 2: not shown | 0.0536 µM | 10.5 s⁻¹ | – | – | – | – | –

Reference: patent publication US11491212
